Laboratory results published in article PMC4298360 (2015).

Key:
[1] = molecular target: T1, IgG-IL-2 (monovalent fusion of wild-type human IL-2 to a non-targeted, effector-silent human IgG1) (human, UniProt P60568 21-153); assay: SPR; steady state
[2] = molecular target: T2, IgG-(IL-2)2 (bivalent fusion of two wild-type human IL-2 to a non-targeted, effector-silent human IgG1) (human, UniProt P60568 21-153); assay: SPR; steady state
[3] = molecular target: T1, IgG-IL-2 (monovalent fusion of …); assay: SPR
[4] = molecular target: T2, IgG-(IL-2)2 (bivalent fusion of two …); assay: SPR

Binder | Kd [1] [nM] | Kd [2] [nM] | koff [3] [s⁻¹] | koff [4] [s⁻¹]
cynomolgus IL-2Rα, monomeric, his-tagged (receptor) ELCDDDPPKITHATFKAVAYKEGTMLNCECKRGFRRIKSGSPYMLCTGNSSHSSWDNQCQCTSSAARNTTKQVTPQPEEQKERKTTEMQSQMQLADQVSLPGHCREPPPWENEATERIYHFVVGQTVYYQCVQGYRALHRGPAESVCKMTHGKTRWTQPQLICTGETEPSQFPGEEEPQASPDGLPESETSRLVTTTDFRIQTEVAATMETFIFTTEYQ | 30 | 15 | – | –
cynomolgus IL-2Rβγ heterodimeric Fc fusion (knobs-into-holes), biotinylated (Fc fusion) chain 1: AVNGTSRFTCFYNSRANISCVWSQDGALQDTSCQVHAWPDRRRWNQTCELLPVSQASWACNLILGTPDSQKLTAVDIVTLRVMCREGVRWRMMAIQDFKPFENLRLMAPISLQVVHVETHRCNISWKISQASHYFERHLEFEARTLSPGHTWEEAPLMTLKQKQEWICLETLTPDTQYEFQVRVKPLQGEFTTWSPWSQPLAFRTKPAALGKDT chain 2: LNTTILTPNGNEDATTDFFLTSMPTDSLSVSTLPLPEVQCFVFNVEYMNCTWNSSSEPQPTNLTLHYWYKNSDNDKVQKCSHYLFSEEITSGCQLQKKEIHLYQTFVVQLQDPREPRRQATQMLKLQNLVIPWAPENLTLRKLSESQLELNWNNRFLNHCLEHLVQYRTDWDHSWTEQSVDYRHKFSLPSVDGQKRYTFRVRSRFNPLCGSAQHWSEWSHPIHWGSNSSKENPFLFALEA | – | – | 0.00011 | 5.3e-05
human IL-2Rα, monomeric, his-tagged (receptor) ELCDDDPPEIPHATFKAMAYKEGTMLNCECKRGFRRIKSGSLYMLCTGNSSHSSWDNQCQCTSSATRNTTKQVTPQPEEQKERKTTEMQSPMQPVDQASLPGHCREPPPWENEATERIYHFVVGQMVYYQCVQGYRALHRGPAESVCKMTHGKTRWTQPQLICTGEMETSQFPGEEKPQASPEGRPESETSCLVTTTDFQIQTEMAATMETSIFTTEYQVAVAGCVFLLISVLLLSGLTWQRRQRKSRRTI | 15 | 5 | – | –

Second part, the binder after the results:

Kd [1] [nM] | Kd [2] [nM] | koff [3] [s⁻¹] | koff [4] [s⁻¹] | Binder
110 | 30 | – | – | murine IL-2Rα, monomeric, his-tagged (receptor) ELCLYDPPEVPNATFKALSYKNGTILNCECKRGFRRLKELVYMRCLGNSWSSNCQCTSNSHDKSRKQVTAQLEHQKEQQTTTDMQKPTQSMHQENLTGHCREPPPWKHEDSKRIYHFVEGQSVHYECIPGYKALQRGPAISICKMKCGKTGWTQPQLTCVDEREHHRFLASEESQGSRNSSPESETSCPITTTDFPQPTETTAMTETFVLTMEYKVAVASCLFLLISILLLSGLTWQHRWRKSRRTI
– | – | 0.00065 | 9.3e-05 | murine IL-2Rβγ heterodimeric Fc fusion (knobs-into-holes), biotinylated (Fc fusion) chain 1: AVKNCSHLECFYNSRANVSCMWSHEEALNVTTCHVHAKSNLRHWNKTCELTLVRQASWACNLILGSFPESQSLTSVDLLDINVVCWEEKGWRRVKTCDFHPFDNLRLVAPHSLQVLHIDTQRCNISWKVSQVSHYIEPYLEFEARRRLLGHSWEDASVLSLKQRQQWLFLEMLIPSTSYEVQVRVKAQRNNTGTWSPWSQPLTFRTRPADPMKE chain 2: WSSKVLMSSANEDIKADLILTSTAPEHLSAPTLPLPEVQCFVFNIEYMNCTWNSSSEPQATNLTLHYRYKVSDNNTFQECSHYLFSKEITSGCQIQKEDIQLYQTFVVQLQDPQKPQRRAVQKLNLQNLVIPRAPENLTLSNLSESQLELRWKSRHIKERCLQYLVQYRSNRDRSWTELIVNHEPRFSLPSVDELKRYTFRVRSRYNPICGSSQQWSKWSQPVHWGSHTVEENPSLFALEA
– | – | 3.8e-05 | 8.1e-06 | human IL-2Rβγ heterodimeric Fc fusion (knobs-into-holes), biotinylated (Fc fusion) chain 1: AVNGTSQFTCFYNSRANISCVWSQDGALQDTSCQVHAWPDRRRWNQTCELLPVSQASWACNLILGAPDSQKLTTVDIVTLRVLCREGVRWRVMAIQDFKPFENLRLMAPISLQVVHVETHRCNISWEISQASHYFERHLEFEARTLSPGHTWEEAPLLTLKQKQEWICLETLTPDTQYEFQVRVKPLQGEFTTWSPWSQPLAFRTKPAALGKDT chain 2: LNTTILTPNGNEDTTADFFLTTMPTDSLSVSTLPLPEVQCFVFNVEYMNCTWNSSSEPQPTNLTLHYWYKNSDNDKVQKCSHYLFSEEITSGCQLQKKEIHLYQTFVVQLQDPREPRRQATQMLKLQNLVIPWAPENLTLHKLSESQLELNWNNRFLNHCLEHLVQYRTDWDHSWTEQSVDYRHKFSLPSVDGQKRYTFRVRSRFNPLCGSAQHWSEWSHPIHWGSNTSKENPFLFALEA
